Measurements published in the Human Domainome abundance scans (Beltran et al. 2025).

B1: CD2-associated protein, residues 271 to 331; numbered along this chain, Q9Y5K6 (parent)
chain: KEYCRTLFAYEGTNEDELTFKEGEIIHLISKETGEAGWWRGELNGKEGVFPDNFAVQINEL

Variants of: B1
Assay: abundance fitness (aPCA) (normalised: wild type 0, dead -1); higher = more abundant; growth selection in yeast, the domain comes from the species named
Details: Homo sapiens

Abundance fitness: each site, then its substitutions
N44: L -0.287, H -0.03, I -0.787, A -0.152, D -0.113, M -0.172, W -0.568, C -0.273, Y -0.363, T -0.518, P -1.14, Q -0.507, F -0.449, G -0.029, E -0.043, V -0.791, R -0.073
E42: M -0.02, P -0.981, Y -0.567, I -0.026, W -0.313, A 0.006, K -0.011, H -0.419, V -0.159, S -0.05, T -0.185, C -0.201, D -0.298, N -0.078, Q -0.12, R -0.099, L -0.218, F -0.569
P51: N -0.582, K 0.152, E -0.573, F -0.677, R -0.032, G -0.893, W -0.533, A -0.447, V -0.974, M 0.004, I -0.49, D -0.487, H -0.866, L -0.377, C -0.923, Q -0.137, S -0.56
L43: M -0.219, T -0.505, N -0.468, H -0.522, V -0.308, G -0.766, Y -0.294, A -0.285, I -0.004, K -0.156, S -0.411, P -0.701, W -0.605, Q -0.682, F -0.475, C -0.26, R -0.214, D -0.458, E -0.703
F54: K 0.044, E -0.632, G -0.32, S 0.099, A 0.162, T -0.088, M -0.079, H -0.018, I -0.191, Q -0.347, C 0.084, P -0.572, R -0.004, V 0.011, L 0.037, W -0.296, N -0.625
F50: W -0.792, N -0.809, P -0.973, D -0.626, Q -0.732, S -0.818, V -0.674, L -0.668, M -0.845, I -0.822, R -0.614, K -0.993, C -0.516, T -0.705, A -0.539
E47: S -0.052, Y -0.171, I 0.053, L -0.241, F -0.198, C -0.104, M -0.301, T -0.029, Q 0.014, R -0.02, V -0.029, H -0.154, P -0.752, W -0.601, D -0.347, N -0.205, A -0.248, G -0.479
G48: V -0.864, Y -1.18, S -0.843, I -0.725, P -0.932, D -0.695, M -0.947, A -0.65, Q -0.93, T -1.07, F -1.05, N -0.998, C -1.01, H -0.749, L -0.753, R -0.856, K -0.746, E -0.688, W -0.949
L61: A 0.033
N53: C -0.138, Q -0.051, I -0.193, S 0.012, T 0.027, Y -0.084, P -0.365, R 0.038, W -0.355, L -0.133, V -0.185, K 0.133, H -0.032, E -0.036, D -0.094, M -0.198, A -0.003, F -0.14
G45: W -0.829, M -0.695, R -0.617, A -0.437, F -0.408, Q -0.612, T -0.746, S -0.376, P -0.784, H -0.343, N -0.359, K -0.438, V -0.845, E -0.448, L -0.858, I -0.453, C -0.322
K46: Y -0.34, N -0.286, S -0.338, H 0.083, E -0.348, Q -0.265, I -0.309, G -0.924, M -0.235, R 0.012, P -1.05, T -0.273, L -0.223, V -0.033, A -0.134, C -0.056, D -0.39
G41: N -0.881, W -1.14, T -0.636, V -1.06, Y -0.938, L -0.747, R -0.909, Q -0.657, P -0.605, M -1.01, S -0.71
V49: L -0.01, R 0.029, K 0.003, G -0.628, Q -0.302, A -0.319, W -0.111, T -0.129, N -0.099, C -0.11, P -0.713, M -0.082, H -0.482, Y -0.022, S -0.297, E -0.674
V56: L -0.264, F -0.456, N -0.339, H -0.317, R -0.161, C -0.314, W -0.434, M -0.073, K -0.05, Q -0.226, G -0.173, S -0.243, Y -0.409, E 0.003, P -0.567, I -0.327, T 0.033
D52: P -0.081, Q -0.02, N 0.008, L -0.055, M 0.077, V -0.16, A 0.053, C 0.009, Y -0.085, E 0.043, F -0.142, I 0.077, K -0.02, S 0.039, R -0.043, W -0.186
E60: I -0.475, D 0.172, A -0.05, K 0.03, N -0.227, T -0.11, M -0.42, R -0.178, C -0.127, F -0.213, S -0.124, W -0.258, V -0.291, G 0.013, P -0.015, L -0.296, H 0.13, Q -0.115
I58: L -0.026, C -0.112, F -0.126, S -0.233, D 0, N -0.378, Y -0.249, R -0.417, P -0.431, T -0.136, A -0.151, H -0.234, Q -0.247, W -0.213, V 0.005
A55: I -0.274, Y -0.919, W -0.623, R -1.07, L -0.573, C -0.058, T -0.149, K -0.92, P -0.738, D -0.671, M -0.886, G -0.322, F -0.492, H -1.01, V 0.034, E -0.726, S -0.505
Q57: C -0.139, W -0.532, H -0.051, T -0.024, S -0.182, A -0.023, N -0.077, L -0.046, I -0.006, R -0.155, E -0.016, D -0.097, V -0.058, F -0.295, Y -0.463, K -0.188
N59: K -0.274, V -0.349, G -0.037, M -0.426, P -0.032, S 0.009, I -0.702, H -0.1, T -0.147, Y -0.332, E -0.05, W -0.367, Q -0.056, D -0.145, L -0.501
